Measurements published in US9963688B2, “Heavy metal resistant esterase” (AMERICAN UNIVERSITY OF CAIRO, priority 2013, dated 2018).
“And” between values parts separate entries of the source, which are not always exact repeats. Identical values can stand only once.

Tests used:
Type in all cases: biochemical
[1] = Effect of detergents, reducing and modifying agents on EstATII activity; settings: standard assay conditions
Description: (§1) Enzyme activity was determined by measuring the formation of p-nitrophenol (pNP) from the enzymatic hydrolysis of the p-nitrophenyl ester; p-nitrophenyl butyrate (Sigma-Aldrich). The reaction mixture contained p-nitrophenyl butyrate (pNPB) to a final concentration 0.1 mM and 50 mM Tris-HCl pH=8. In this study, the standard reaction was conducted at 65° C., initiated by the addition of EstATII and terminated by the addition of 10% SDS. Measurements were done at 410 nm using UV-spectrophotometer (Ultrospec 3100 pro, Amersham Biosciences) unless stated otherwise^20. All experiments were performed in triplicates. Substrate specificity of EstATII was determined using p-nitrophenol esters with varying side chain length. Short-chain fatty acid esters used were PNP-acetate (C2), PNP-butyrate (C4) and PNP-valerate (C5) and long-chain fatty acid esters used were PNP-decanoate (C10), PNP-dodecanoate C12, PNP-myristate (C14) and PNP-palmitate (C16). The optimum temperature for the activity of EstATII was determined at a temperature range 30-80° C. The optimum pH for the activity of EstATII was measured at a pH range (3-9.5) using the following buffers: 50 mM sodium acetate (pH 3-5.5), 50 mM sodium phosphate (pH 6, 7.5) and 50 mM Tris-HCL (pH 7.5-9.5). Formation of pNP was measured at 348 nm (the pH-independent isosbestic wavelength of pNP)^21. The effect of NaCl concentration on enzyme activity was measured at different NaCl concentrations (0-4.5 M) under standard assay conditions. To assess the effect of metal ions on enzyme activity, cations were added to a final concentration of 1 mM, and relative activity measured at the above-described standard conditions. The effect of detergents (at final concentrations 0.1 and 1%) and inhibitors (final concentration 1 mM) on enzyme activity was tested at the above-described standard assay conditions.

[2] = Effect of temperature on EstATII esterase activity (p-nitrophenyl butyrate hydrolysis)
Description: as §1

[3] = Substrate specificity of EstATII
Description: as §1

[4] = Effect of pH on EstATII esterase activity (pNP formation measured at 348 nm)
Description: as §1

[5] = Effect of NaCl concentration on EstATII activity; settings: for Relative Activity: absence of NaCl defined as 100%
Description: as §1

[6] = Effect of metal ions on EstATII activity
Description: as §1

[7] = cation 1 mM, standard conditions

B1: EstATII: novel esterase from the lower convective layer of the Atlantis II brine pool, Red Sea; 314 amino acids, HSL family (protein)
chain: MSRYVDELYRNPGQPGLRALLRGMLKLLFRGLIRPPVPFAVQALVLRLLTLGMPLARGVTRSTEQIAGRPCMWHRPAAGGNGRVLLYLHGGAFVIGSPQTHRGICSALASRGQFDVCALDYRLAPAHPAPAACDDAVAAYQALLQRGYAPAQITLIGDSAGGNLVLVTAQKLAALKLPLPASLVCFSPVTDMTAEQLHAPAAGDPLLHPSWLDSARDAYCPAGLDRADPMVSPLFGQLKGLPPLLLQVGEDEVLLNDSLRLAEAARAADVAVRLERYEDLWHVFQAHAGLLHSADAALQRVVDFVNSAQTDSVS
For B1, the “Relative Activity” value ([1]; CTAB 1 mM) was 13.1 ± 1.9%, the “Relative Activity” value ([1]; DTT 1 mM) was 78.9% and 78.9 ± 4.2% and the “Relative Activity” value ([1]; SDS 0.1%) was 6% and 6.1 ± 0.4%. For the same molecule, the “Relative Activity” value ([1]; Triton X-100 0.1%) was 42.3% and 42.2 ± 1.1%, the “Relative Activity” value ([1]; Tween 20 0.1%) was 87.5% and 87.5 ± 2.3% and the “Relative Activity” value ([1]; Tween 20 1%) was 40.1% and 40.1 ± 0.9%. The “Relative Activity” value ([1]; Tween 80 1%) was 54.5% and 54.5 ± 0.7%, the “Relative Activity” value ([1]; β-mercaptoethanol 1 mM) was 117.9% and 117.9 ± 0.3% and the “Relative Activity” value ([2]; 30 °C, pNPB 0.1 mM, 50 mM Tris-HCl pH 8, 65 °C defined as 100%) was 56.3 ± 0.8%. The “Relative Activity” value ([2]; 35 °C, 65 °C defined as 100%) was 59.9 ± 1%, the “Relative Activity” value ([2]; 40 °C, 65 °C defined as 100%) was 65.3 ± 1.8% and the “Relative Activity” value ([2]; 45 °C, 65 °C defined as 100%) was 86.9 ± 0.9%. The “Relative Activity” value ([2]; 50 °C, 65 °C defined as 100%) was 90.9 ± 2%, the “Relative Activity” value ([2]; 55 °C, 65 °C defined as 100%) was 93.9 ± 1% and the “Relative Activity” value ([2]; 60 °C, 65 °C defined as 100%) was 95.9 ± 0.3%. The “Relative Activity” value ([2]; 65 °C, optimum condition (defined as 100%)) was 100 ± 0.2%, the “Relative Activity” value ([2]; 70 °C, 65 °C defined as 100%) was 91.6 ± 0.15% and the “Relative Activity” value ([2]; 75 °C, 65 °C defined as 100%) was 76.7 ± 0.3%. For the same molecule, the “Temp ° C. (apparent optimum temperature)” value ([2]; range tested 30-80 °C) was 65 °C, the “Activity of the enzyme” value ([2]; temperatures ranging from 45° C. to 75° C.) was > 70% and the “Activity towards short-chain fatty acid esters” value ([3]; C2, C4 and C5 p-nitrophenol esters) was “active”. For the same molecule, the “Activity towards long-chain fatty acid esters” value ([3]; C10, C12, C14 and C16 p-nitrophenol esters) was “no activity”, the “Relative Activity” value ([3]; substrate pNP-acetate (C2)) was 100 ± 3% and the “Relative Activity” value ([3]; substrate pNP-butyrate (C4)) was 61.9 ± 0.8%. For the same molecule, the “Relative Activity” value ([3]; substrate pNP-decanoate (C10)) was 0%, the “Relative Activity” value ([3]; substrate pNP-dodecanoate (C12)) was 0% and the “Relative Activity” value ([3]; substrate pNP-myristate (C14)) was 0%. The “Relative Activity” value ([3]; substrate pNP-palmitate (C16)) was 0%, the “Relative Activity” value ([3]; substrate pNP-valerate (C5)) was 40.5 ± 1.2% and the “Relative Activity” value ([4]; pH 3, 50 mM sodium acetate, pH 8.5 defined as 100%) was 0%. The “Relative Activity” value ([4]; pH 4, 50 mM sodium acetate, pH 8.5 defined as 100%) was 0%, the “Relative Activity” value ([4]; pH 5, 50 mM sodium acetate, pH 8.5 defined as 100%) was 0% and the “Relative Activity” value ([4]; pH 5.5, 50 mM sodium acetate, pH 8.5 defined as 100%) was 13.1 ± 0.2%. For the same molecule, the “Relative Activity” value ([4]; pH 6, 50 mM sodium phosphate, pH 8.5 defined as 100%) was 38.5 ± 1.2%, the “Relative Activity” value ([4]; pH 6.5, pH 8.5 defined as 100%) was 43.2 ± 2% and the “Relative Activity” value ([4]; pH 7, pH 8.5 defined as 100%) was 81.5 ± 1%. The “Relative Activity” value ([4]; pH 7.5 (Na Phosphate), pH 8.5 defined as 100%) was 88 ± 1%, the “Relative Activity” value ([4]; pH 7.5 (Tris.HCl), pH 8.5 defined as 100%) was 66.1 ± 0.2% and the “Relative Activity” value ([4]; pH 8, 50 mM Tris-HCl, pH 8.5 defined as 100%) was 84.7 ± 1.1%. For the same molecule, the “Relative Activity” value ([4]; pH 8.5, optimum condition (defined as 100%)) was 100 ± 3%, the “Relative Activity” value ([4]; pH 9, 50 mM Tris-HCl, pH 8.5 defined as 100%) was 60 ± 2% and the “Activity of the enzyme” value ([4]; pH lower than 5.5) was “No activity”. For the same molecule, the “Activity of the enzyme” value ([4]; pH=7-9) was > 50%, the “pH (highest activity)” value ([4]; range tested pH 3-9) was 8.5 and the “Relative Activity” value ([5]; 0.5M Sodium Chloride) was 102.2 ± 2%. The “Relative Activity” value ([5]; 1M Sodium Chloride) was 99.9 ± 0.5%, the “Relative Activity” value ([5]; 1.5M Sodium Chloride) was 120 ± 1% and the “Relative Activity” value ([5]; 2M Sodium Chloride) was 122.9 ± 1%. For the same molecule, the “Relative Activity” value ([5]; 2.5M Sodium Chloride) was 102.4 ± 1.8%, the “Relative Activity” value ([5]; 3M Sodium Chloride) was 73.8 ± 3.8% and the “Relative Activity” value ([5]; 3.5M Sodium Chloride) was 65.3 ± 4.6%. For the same molecule, the “Relative Activity” value ([5]; 4M Sodium Chloride) was 53.8 ± 1%, the “Relative Activity” value ([5]; 4.5M Sodium Chloride) was 39.7 ± 1.7% and the “NaCl concentration of highest activity” value ([5]; range tested 0M-4.5M NaCl) was 2 M. For the same molecule, the Activity ([5]; up to 4M NaCl) was > 50%, the Enzyme activity ([5]; up to 4.5M NaCl) was “maintained” and the “Relative activity with Ba^2+” value [6, 7] was 158% and 158.3 ± 2.2%. For the same molecule, the “Relative activity with Co^2+” value [6, 7] was 104% and 104 ± 2%, the “Relative activity with Cu^2+” value [6, 7] was 94.8 ± 0.1% and the “Relative activity with Fe^3+” value [6, 7] was 96.2 ± 0.7%. The “Relative activity with Hg^2+” value [6, 7] was 60.9 ± 0.4%, the “Relative activity with Mg^2+” value [6, 7] was 90.6 ± 3.6% and the “Relative activity with Mn^2+” value [6, 7] was 111% and 111.8 ± 0.1%. For the same molecule, the “Relative activity with Zn^2+” value [6, 7] was 85.2 ± 4.4%, the “Relative activity with Ca^2+” value ([6]; cation 1 mM, standard conditions (65 °C, Tris-HCl pH 8, pNPB)) was 94.8 ± 3% and the “Activity with the rest of the metal ions tested” value ([6]; metal ions other than Barium, Manganese, Cobalt, 1 mM) was “above 60%”. For the same molecule, the “Resistance to inhibition by all metal ions tested” value ([6]; significantly inhibited = relative activity below 50%) was “showed resistance to inhibition by all metal ions tested” and the “Effect of EDTA chelation on enzyme activity” value ([6]; with and without EDTA chelation) was “not affected”.
